T1: endogenous RNF11 (murine primary cortical neurons) (mouse (endogenous in primary cortical …, UniProt Q9QYK7 1-154))
T1 construct: RING finger protein 11 (RNF11), endogenous in primary cortical neurons of C57BL/6 mice; also called RING finger protein 11; source: endogenous, murine primary cortical neuron lysate
T1 sequence (looked up): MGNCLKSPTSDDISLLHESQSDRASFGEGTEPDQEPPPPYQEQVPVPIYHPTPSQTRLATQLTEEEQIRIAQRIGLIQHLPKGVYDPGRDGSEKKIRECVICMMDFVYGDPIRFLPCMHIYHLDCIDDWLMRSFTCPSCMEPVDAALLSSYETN


Target: T1, endogenous RNF11 (murine primary …)
Assay: co-IP; lysates of murine primary cortical neurons stimulated with 10 ng/ml TNF-α for 0 or 30 minutes; IP with RNF11 antibody; control IP with antibody omitted; immunoblot with anti-A20 and Itch; densitometry normalised to input, 0 minutes set at 100%
Conditions: partners not purified

| A20 immunoreactivity in RNF11 immunoprecipitates after 30 minutes of TNF-α, relative to 0 minutes (100%) [%] | Itch immunoreactivity in RNF11 immunoprecipitates after 30 minutes of TNF-α, relative to 0 minutes (100%) [%] | Binder |
| --- | --- | --- |
| 129 |  | endogenous A20 (murine primary cortical neurons) (natural protein, UniProt Q60769 1-775, looked up, A20 (TNF-α-induced protein 3, TNFAIP3), endogenous in primary cortical neurons of C57BL/6 mice; also called TNFAIP3; source: endogenous, murine primary cortical neuron lysate) MAEQLLPQALYLSNMRKAVKIRERTPEDIFKPTNGIIYHFKTMHRYTLEMFRTCQFCPQFREIIHKALIDRSVQASLESQKKLNWCREVRKLVALKTNGDGNCLMHAACQYMWGVQDTDLVLRKALCSTLKETDTRNFKFRWQLESLKSQEFVETGLCYDTRNWNDEWDNLVKMASADTPAARSGLQYNSLEEIHIFVLSNILRRPIIVISDKMLRSLESGSNFAPLKVGGIYLPLHWPAQECYRYPIVLGYDSQHFVPLVTLKDSGPELRAVPLVNRDRGRFEDLKVHFLTDPENEMKEKLLKEYLIVMEIPVQGWDHGTTHLINAAKLDEANLPKEINLVDDYFELVQHEYKKWQENSDQARRAAHAQNPLEPSTPQLSLMDIKCETPNCPFFMSVNTQPLCHECSERRQKNQSKLPKLNSKLGPEGLPGVGLGSSNWSPEETAGGPHSAPPTAPSLFLFSETTAMKCRSPGCPFTLNVQHNGFCERCHARQINASHTADPGKCQACLQDVTRTFNGICSTCFKRTTAEPSSSLTSSIPASCHQRSKSDPSQLIQSLTPHSCHRTGNVSPSGCLSQAARTPGDRAGTSKCRKAGCMYFGTPENKGFCTLCFIEYRENKQSVTASEKAGSPAPRFQNNVPCLGRECGTLGSTMFEGYCQKCFIEAQNQRFHEARRTEEQLRSSQHRDMPRTTQVASRLKCARASCKNILACRSEELCMECQHLSQRVGSVAHRGEPTPEEPPKQRCRAPACDHFGNAKCNGYCNECYQFKQMYG |
|  | 166 | endogenous Itch (murine primary cortical neurons) (natural protein, E3 ligase Itch (also known as AIP4), endogenous in primary cortical neurons of C57BL/6 mice; also called AIP4; source: endogenous, murine primary cortical neuron lysate) not shown |
